Results published in article doi:10.1101/208041.
Where two headings read alike, the source gives them in different places.

T1: dMpAgo (catalytically inactive MpAgo) (Marinitoga piezophila, UniProt H2J4R4 1-639, D446A)
T1 sequence: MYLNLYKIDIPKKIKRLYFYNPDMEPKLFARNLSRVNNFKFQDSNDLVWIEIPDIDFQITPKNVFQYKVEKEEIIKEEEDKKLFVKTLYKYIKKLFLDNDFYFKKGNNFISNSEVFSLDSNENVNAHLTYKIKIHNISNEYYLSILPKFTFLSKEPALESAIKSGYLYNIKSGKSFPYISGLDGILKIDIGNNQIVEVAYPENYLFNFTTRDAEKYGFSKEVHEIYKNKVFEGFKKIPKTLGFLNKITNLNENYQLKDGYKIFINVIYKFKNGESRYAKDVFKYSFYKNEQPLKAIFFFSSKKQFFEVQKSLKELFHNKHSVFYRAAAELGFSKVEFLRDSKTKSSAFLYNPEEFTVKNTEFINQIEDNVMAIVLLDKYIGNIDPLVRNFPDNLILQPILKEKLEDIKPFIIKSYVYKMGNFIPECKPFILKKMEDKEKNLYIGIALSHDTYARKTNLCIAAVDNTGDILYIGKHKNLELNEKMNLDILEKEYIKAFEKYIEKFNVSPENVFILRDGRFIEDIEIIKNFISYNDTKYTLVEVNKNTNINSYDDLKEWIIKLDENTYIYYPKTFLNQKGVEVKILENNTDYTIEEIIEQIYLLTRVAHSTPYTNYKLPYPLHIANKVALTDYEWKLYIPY


What was measured:
Test in all cases: filter binding
[1] = target: T1, dMpAgo (catalytically inactive MpAgo)
[2] = target: T1, dMpAgo (catalytically inactive MpAgo); remark: listed apart in the source
[3] = target: T1, dMpAgo (catalytically inactive MpAgo); remark: listed apart in the source

| Binder | binding signal [1] | Kd [3] | further results |
| --- | --- | --- | --- |
| A6 guide / mm2 (mixed, BrdU at guide 1) RNA 1: UGCGGAUGCCAUAUGCAACUU RNA 2: GGCAGCAUUCAACCAUAUGGCAUCCGAAUACAGCCAAG | > 5 fold Kd vs complementary | – | – |
| A6 guide / mm8 (mixed, BrdU at guide 1) RNA 1: UGCGGAUGCCAUAUGCAACUU RNA 2: GGCAGCAUUCAACCAUAUGGAAUCCGCAUACAGCCAAG | > 5 fold Kd vs complementary | – | – |
| A6 guide / mm10 (mixed, BrdU at guide 1) RNA 1: UGCGGAUGCCAUAUGCAACUU RNA 2: GGCAGCAUUCAACCAUAUUGCAUCCGCAUACAGCCAAG | > 5 fold Kd vs complementary | – | – |
| A6 guide / mm3 (mixed, BrdU at guide 1) RNA 1: UGCGGAUGCCAUAUGCAACUU RNA 2: GGCAGCAUUCAACCAUAUGGCAUCCUCAUACAGCCAAG | > 5 fold Kd vs complementary | – | – |
| A6 guide / mm7 (mixed, BrdU at guide 1) RNA 1: UGCGGAUGCCAUAUGCAACUU RNA 2: GGCAGCAUUCAACCAUAUGGCCUCCGCAUACAGCCAAG | > 5 fold Kd vs complementary | – | – |
| U6 guide / A target (mixed, BrdU at guide 1) RNA 1: UGCGGUUGCCAUAUGCAACUU RNA 2: GGCAGCAUUCAACCAUAUGGCAACCGCAUACAGCCAAG | – | – | binding result [2]: binds |
| A6 guide / mm4 (mixed, BrdU at guide 1) RNA 1: UGCGGAUGCCAUAUGCAACUU RNA 2: GGCAGCAUUCAACCAUAUGGCAUCAGCAUACAGCCAAG | > 5 fold Kd vs complementary | – | – |
| A6 guide / mm11 (mixed, BrdU at guide 1) RNA 1: UGCGGAUGCCAUAUGCAACUU RNA 2: GGCAGCAUUCAACCAUAGGGCAUCCGCAUACAGCCAAG | > 5 fold Kd vs complementary | – | – |
| A7 guide / U target (mixed, BrdU at guide 1) RNA 1: UAGCGGAUGCCAUAUCCAACU RNA 2: GGCAGCAUUCAACCAUAUGGCAUCCGCAUACAGCCAAG | – | – | binding result [2]: binds |
| A6 guide / mm12 (mixed, BrdU at guide 1) RNA 1: UGCGGAUGCCAUAUGCAACUU RNA 2: GGCAGCAUUCAACCAUCUGGCAUCCGCAUACAGCCAAG | > 5 fold Kd vs complementary | – | – |
| A6 guide / mm5 (mixed, BrdU at guide 1) RNA 1: UGCGGAUGCCAUAUGCAACUU RNA 2: GGCAGCAUUCAACCAUAUGGCAUACGCAUACAGCCAAG | > 5 fold Kd vs complementary | – | – |
| rA guide / ON target (mixed) RNA 1: AAUACAACCUACUACCUCAUU RNA 2: GGACUAUGAUCUAGAUAUUAAUGAGGUAGUAGGUUGUAUCUCAGGAGGUC | – | 12 ± 2 nM | – |
| rC guide / ON target (mixed) RNA 1: CAUACAACCUACUACCUCAUU RNA 2: GGACUAUGAUCUAGAUAUUAAUGAGGUAGUAGGUUGUAUCUCAGGAGGUC | – | 4.6 ± 0.5 nM | – |
| rU guide / ON target (mixed) RNA 1: UAUACAACCUACUACCUCAUU RNA 2: GGACUAUGAUCUAGAUAUUAAUGAGGUAGUAGGUUGUAUCUCAGGAGGUC | – | 5 ± 0.8 nM | – |
| dU guide / ON target (mixed, dU at guide 1) RNA 1: UAUACAACCUACUACCUCAUU RNA 2: GGACUAUGAUCUAGAUAUUAAUGAGGUAGUAGGUUGUAUCUCAGGAGGUC | – | 0.5 ± 0.067 nM | – |
| rA guide / OFF target (mixed) RNA 1: AAUACAACCUACUACCUCAUU RNA 2: GUUAUGUGUGUGAUUAUAUUUGUUCCAGUUCCUGUGUAAUAGACAUGGAA | – | 112 ± 19 nM | – |
| dU guide / OFF target (mixed, dU at guide 1) RNA 1: UAUACAACCUACUACCUCAUU RNA 2: GUUAUGUGUGUGAUUAUAUUUGUUCCAGUUCCUGUGUAAUAGACAUGGAA | – | – | binding result [3]: no binding |
| rU guide / OFF target (mixed) RNA 1: UAUACAACCUACUACCUCAUU RNA 2: GUUAUGUGUGUGAUUAUAUUUGUUCCAGUUCCUGUGUAAUAGACAUGGAA | – | 359 ± 37 nM | – |
| rC guide / OFF target (mixed) RNA 1: CAUACAACCUACUACCUCAUU RNA 2: GUUAUGUGUGUGAUUAUAUUUGUUCCAGUUCCUGUGUAAUAGACAUGGAA | – | 112 ± 18 nM | – |
